The results in this text go back to US20080044413A1 (published 2008).

The target of assay [1] is T1, Human EphA2-Fc fusion protein (human, UniProt P29317 24-537).
T1 construct: extracellular domain; Expressed in HEK 293 cells; Biotinylated in the capture ELISAs; also called soluble EphA2 Fc fusion protein; not shown: Fc portion of a human IgG1
Nature of the assay: SPR (Biacore 3000), soluble IgG on immobilized EphA2-Fc. Background: Surface plasmon resonance follows binding to a sensor surface in real time, without labels.

The target in assay [2] is T1, Human EphA2-Fc fusion protein. Nature of the assay: SPR (BIAcore 3000), KD against that of 4H5 scFv. On the procedure: (§1) 2A4, 2E7 and 12E2 as well as parental EA2 scFv and humanized 4H5 scFv were induced for expression in E. coli in a 1 L culture volume. The supernatants containing soluble, secreted scFv fragments were spun to remove cellular debris then passed over an anti-FLAG column (Sigma) to purify and isolate the variant proteins. The purified affinity optimized variants were analyzed by surface plasmon resonance detection using a BIAcore 3000 instrument (Pharmacia Biosensor, Uppsala, Sweden). […] For affinity measurement results, see the table in section 6.6, infra.

Assay [3] shares this target. The assay is described as follows: SPR (BIAcore 3000), purified monomeric scFv, human EphA2. The protocol:
as §1

Assay [4] addresses T2, human EphA2 (human, UniProt P29317 24-976).
T2 construct: whole, on cells; also called EphA2 receptor
The assay is described as follows: immunofluorescence microscopy of fixed monolayers of MCF-10A and MDA-MB-231 cells. On the procedure: Monolayers of MCF-10A or MDA-MB-231 cells were cultured atop glass coverslips for at least 24 h at 37° C. before staining. Cell monolayers were fixed in 4% paraformaldehyde (2 min, 25° C.) before incubation with primary antibody (clone G5 (negative control), EA5, EA2, 3F2, or 4H5) for 30 min followed by subsequent staining with AlexaFluor 488-conjugated goat anti-mouse IgG or AlexaFluor 488-conjugated goat anti-human IgG (The Jackson Laboratory). Cells were fixed for analyses by immunofluorescence microscopy. […] The amino acid sequence of the VL and VH domains of the G5 antibody are depicted in FIG. 42.

The target in a further assay is T3, cynomolgus EphA2 (cynomolgus, UniProt Q1KL86 24-976).
T3 construct: whole, on cells; also called cynomolgus EphA2 expressed on transfected CHO cells
The assay is described as follows: flow cytometry on cynomolgus EphA2 transfected CHO cells, antibody 10 µg/ml, AlexaFluor 488 anti-mouse or anti-human IgG (H+L). On the procedure:
Subconfluent monolayers of SW480 colon carcinoma or cynomolgus EphA2 transfected CHO cells were quickly trypsinized, washed, counted, plated into 96-well round bottom plates, and stained with 10 μg/ml of a negative control antibody (R347), the anti-human EphA2 murine antibody, EA2 (Coffman 2003), or humanized antibodies, 3F2 and 4H5. Cells were resuspended in AlexaFluor 488 anti-mouse or anti-human IgG H+L (Invitrogen) and then analyzed by flow cytometry using a FACSCalibur (Becton Dickinson).

In assay [5] the target is T2, human EphA2. The assay is described as follows: flow cytometry on A549 cells, antibody 10 µg/ml, PE anti-mouse Fc gamma; control: irrelevant antibody of the same isotype [A]. On the procedure:
FIGS. 10A-10B: Flow cytometric binding analysis of anti-EphA2 parental antibodies. EphA2 expressing A549 cells (human lung carcinoma cell line) (A), and MDA-MB-231 cells (human breast cancer) (B) were used. Cells (200,000) were incubated with 10 μg/ml of the respective antibody for 30 min on ice. The cells were subsequently washed twice in PBS. The binding of the primary antibody was detected via an phycoerythrin-conjugated murine Fc-gamma specific antibody (Dianova, order no. 115-116-071) diluted 1:100 in 50 μl PBS with 2% FCS. As negative control, an irrelevant antibody with the same isotype was used (thin line). Cells were analyzed by flow cytometry on a FACS-Calibur (Becton Dickinson, Heidelberg). […] The binding capabilities of the three different antibodies are shown in a histogram overlay (4th peak from left=B322 antibody; 3rd peak from left=EA2 antibody; 2nd peak from left=EA5 antibody; far left peak—control).
A flow cytometric analysis was performed to estimate the binding strength of the anti-EphA2 parental monoclonal antibodies […], EA2 and EA5 (FIG. 10). […] The binding of the primary antibody was detected via an phycoerythrin conjugated murine Fc-gamma specific antibody (Dianova, order no. 115-116-071) diluted 1:100 in […] PBS with 2% FCS. […] Cells were analyzed by flow cytometry on a FACS-Calibur (Becton Dickinson, Heidelberg).

T3 sequence (Q1KL86 24-976): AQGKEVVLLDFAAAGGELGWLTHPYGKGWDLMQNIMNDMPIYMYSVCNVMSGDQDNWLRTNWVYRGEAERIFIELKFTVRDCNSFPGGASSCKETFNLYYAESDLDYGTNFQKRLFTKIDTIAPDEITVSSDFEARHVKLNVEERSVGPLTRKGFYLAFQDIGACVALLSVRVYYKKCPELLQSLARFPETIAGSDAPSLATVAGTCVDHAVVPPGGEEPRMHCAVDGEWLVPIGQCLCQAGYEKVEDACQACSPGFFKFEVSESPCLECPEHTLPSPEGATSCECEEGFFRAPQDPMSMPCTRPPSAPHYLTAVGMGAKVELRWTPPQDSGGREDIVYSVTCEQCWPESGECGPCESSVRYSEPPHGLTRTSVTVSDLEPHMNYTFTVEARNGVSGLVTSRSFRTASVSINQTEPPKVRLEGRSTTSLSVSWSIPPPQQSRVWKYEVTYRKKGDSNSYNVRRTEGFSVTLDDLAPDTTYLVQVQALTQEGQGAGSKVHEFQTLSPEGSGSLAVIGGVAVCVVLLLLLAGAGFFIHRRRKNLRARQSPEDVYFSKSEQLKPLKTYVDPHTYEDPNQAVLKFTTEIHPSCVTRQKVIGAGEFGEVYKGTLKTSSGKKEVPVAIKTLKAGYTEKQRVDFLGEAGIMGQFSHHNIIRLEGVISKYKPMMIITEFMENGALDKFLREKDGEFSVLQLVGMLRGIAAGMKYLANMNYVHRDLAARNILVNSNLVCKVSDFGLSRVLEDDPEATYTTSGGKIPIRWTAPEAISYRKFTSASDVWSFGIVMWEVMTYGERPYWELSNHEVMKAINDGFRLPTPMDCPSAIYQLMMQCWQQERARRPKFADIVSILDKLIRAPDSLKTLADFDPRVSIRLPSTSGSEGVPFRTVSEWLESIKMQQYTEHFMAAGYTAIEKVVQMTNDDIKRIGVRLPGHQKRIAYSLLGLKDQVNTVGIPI

B1: Chimaeric B 233 (antibody, V domains shown)
VH: EVKLVESGGGLVQPGGSLSLSCAASGFTFTDYSMNWVRQPPGKALEWLGFIRNKANDYTTEYSASVKGRFTISRDNSQSILYLQMNALRAEDSATYYCVRYPRYHAMDSWGQGTSVTVSS
VL: DIVLTQSPATLSVTPGDSVNLSCRASQSISNNLHWYQQKSHESPRLLIKYVFQSISGIPSRFSGSGSGTDFTLSINSVETEDFGMYFCQQSNSWPLTFGAGTKLELK
notes: Soluble IgG with the B233 variable regions; also called chimaeric mAb B233; chimeric B233
One may read the Kd as the equilibrium constant for the complex coming apart. Lower therefore signals a tighter complex. By koff is commonly meant a measure of how fast the partners let go of each other. Lower therefore signals a long-lived complex. For orientation: kon means the rate constant with which the complex forms. A high value points to fast association. In assay [1], B1 yielded a Kd of 0.3 nM, a koff of 8e-05 s⁻¹ and a kon of 240000 M⁻¹ s⁻¹.

B2: VH VL 2A4 scFv (scFv)
scFv: QVQLLESGGGLVQPGGSLRLSCAASGFTFSSYTMSWVRQAPGQALEWMGTISSRGTYTYYPDSVKGRFTISRDNAKNSLYLQMNSLRAEDTAVYYCAREAIFTHWGRGTLVTVSSGGGGSGGGGSGGGGSDIQLTQSPSSLSASVGDRVTITCKASQDINNYHSWYQQKPGQAPRLLIYRANRLVDGVPDRFSGSGYGTDFTLTINNIESEDAAYYFCLKYNVFPYTFGQGTKVEIK
notes: FLAG and His tags as for 4H5 scFv
As to B2, the “Fold Difference (vs 4H5)” value in assay [2] was found to be 32 fold. In assay [3], this molecule showed a Kd of 5.7 nM, a koff of 0.0037 s⁻¹ and a kon of 650000 M⁻¹ s⁻¹.

B3: VH VL 12E2 scFv (scFv)
scFv: QVQLLESGGGLVQPGGSLRLSCAASGFTFSSYTMSWVRQAPGQALEWMGTISSRGTYTYYPDSVKGRFTISRDNAKNSLYLQMNSLRAEDTAVYYCAREAIFTYWGRGTLVTVSSGGGGSGGGGSGGGGSDIQLTQSPSSLSASVGDRVTITCKASQDINNYLSWYQQKPGQAPRLLIYRANRLFDGVPDRFSGSGYGTDFTLTINNIESEDAAYYFCLKYDRFPYTFGQGTKVEIK
notes: as for B2
As for B3, the “Fold Difference (vs 4H5)” value in assay [2] was 23 fold. In assay [3], binding was put at a Kd of 7.8 nM, the koff amounted to 0.0041 s⁻¹ and the kon worked out at 520000 M⁻¹ s⁻¹.

B4: 4H5 VH-VL scFv humanized clone (scFv)
scFv: QVQLLESGGGLVQPGGSLRLSCAASGFTFSSYTMSWVRQAPGQALEWMGTISSGGTYTYYPDSVKGRFTISRDNAKNSLYLQMNSLRAEDTAVYYCAREAIFTYWGRGTLVTVSSGGGGSGGGGSGGGGSDIQLTQSPSSLSASVGDRVTITCKASQDINNYLSWYQQKPGQAPRLLIYRANRLVDGVPDRFSGSGYGTDFTLTINNIESEDAAYYFCLKYDVFPYTFGQGTKVEIK
notes: Expressed with a C-terminal FLAG tag and His tag; also called 4H5 scFv; scFv 4H5
For B4, the “Fold Difference (vs 4H5)” value in assay [2] came to 1 fold. In assay [3], binding was characterised by a dissociation constant (Kd) of 180 nM, the koff was 0.018 s⁻¹ and the kon stood at 100000 M⁻¹ s⁻¹.

B5: VH VL 2E7 scFv (scFv)
scFv: QVQLLESGGGLVQPGGSLRLSCAASGFTFSSYTMSWVRQAPGQALEWMGTISSRGTYTYYPDSVKGRFTISRDNAKNSLYLQMNSLRAEDTAVYYCAREAIFTHWGRGTLVTVSSGGGGSGGGGSGGGGSDIQLTQSPSSLSASVGDRVTITCKASQDINNYGSWYQQKPGQAPRLLIYRANRLVDGVPDRFSGSGYGTDFTLTINNIESEDAAYYFCLKYNRFPYTFGQGTKVEIK
notes: as for B2
As for B5, in assay [2], the “Fold Difference (vs 4H5)” value was found to be 25 fold. In assay [3], the Kd worked out at 7.3 nM, the off-rate (koff) came to 0.0041 s⁻¹ and the kon stood at 560000 M⁻¹ s⁻¹.

B6: G5 (antibody, V domains shown)
VH: QMQLVQSGPEVKKPGTSVKVSCKASGFTFTDYSMNWVRQARGQRLEWIGFIRNKANDYTTEYSASVKGRVTITRDMSTSTAYMELSSLRSEDTAVYYCARYPRYHAMDSWGQGTSVTVSS
VL: DIQMTQSPSSLSASVGDRVTITCRASQSISNNLHWYQQKPGKAPKLLIKYVFQSISGVPSRFSGSGSGTDFTFTISSLQPEDFATYYCQQSNSWPLTFGGGTKVEIK
notes: also called clone G5; anti-EphA2 antibody G5
As for B6, the binding result with human EphA2 [4] is given as “binds”.

B7: Affinity optimized 3F2 (antibody, human IgG1, V domains shown)
VH: EVQLVESGGGVVRPGGSLRLSCAASGFTVSDYSMNWVRQAPGKGLEWIGFIRNKANAYTTEYSASVKGRFTISRDDSKNTLYLQMNSLKTEDTAVYYCTTYPRYHAMDSWGQGTMVTVSS
VL: AIQLTQSPSSLSASVGDRVTITCRASQSISNNLHWYLQKPGQSPQLLIYYGFQSISGVPSRFSGSGSGTDFTLTISSLQPEDFATYYCQQANSWPLTFGGGTKLEIK
notes: human IgG1 with human kappa chain
For the molecule B7, in the assay with cynomolgus EphA2, the binding result is “binds”. In assay [1], this molecule gave a Kd of 0.671 nM, a koff of 0.000127 s⁻¹ and a kon of 189000 M⁻¹ s⁻¹.

B8: parental anti-EphA2 scFv EA2 (scFv)
scFv: DVKLVESGGGLVKPGGSLKLSCAASGFTFSSYTMSWVRQTPEKRLEWVATISSGGTYTYYPDSVKGRFTISRDNAKNTLYLQMSSLKSEDTAMYYCTREAIFTYWGQGTLVTVSAGGGGSGGGGSGGGGSDIKMTQSPSSMYASLGERVTITCKASQDINNYLSWFQQKPGKSPKTLIYRANRLVDGVPSRFSGSGSGQDYSLTISSLEYEDMGIYYCLKYDEFPYTFGGGTKLEIK
notes: The murine EA2 variable regions were cloned in the same manner as the 4H5 scFv (VH, linker, VL, FLAG, His); also called EA2 scFv; not shown: C-terminal FLAG tag and His tag
Turning to B8, the “Fold Difference (vs 4H5)” value in assay [2] was -4.8 fold. In assay [3], this molecule came in with a dissociation constant (Kd) of 870 nM, a koff of 0.03 s⁻¹ and an on-rate constant (kon) of 34000 M⁻¹ s⁻¹.

B9: anti-EphA2 antibody EA5 (antibody, V domains shown)
VH: EVQLQQSGPELVKTGASVKISCKASGYSFTGYYMHWVKQSHGKSLEWIGYISCYNGVTSYNQKFKGKATFTVDTSSSTAYMQFNSLTSEDSAVYYCARSHAMDYWGQGTSVTVSS
VL: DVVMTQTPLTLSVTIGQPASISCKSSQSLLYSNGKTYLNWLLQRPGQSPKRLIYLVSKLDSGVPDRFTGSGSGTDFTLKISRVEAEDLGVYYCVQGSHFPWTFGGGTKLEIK
notes: Murine monoclonal antibody; Hybridoma ATCC PTA-4381; also called mAb EA5
As for B9, the binding result with human EphA2 [5] is listed as “binds”.

B10: anti-EphA2 antibody EA2 (antibody, V domains shown)
VH: DVKLVESGGGLVKPGGSLKLSCAASGFTFSSYTMSWVRQTPEKRLEWVATISSGGTYTYYPDSVKGRFTISRDNAKNTLYLQMSSLKSEDTAMYYCTREAIFTYWGQGTLVTVSA
VL: DIKMTQSPSSMYASLGERVTITCKASQDINNYLSWFQQKPGKSPKTLIYRANRLVDGVPSRFSGSGSGQDYSLTISSLEYEDMGIYYCLKYDEFPYTFGGGTKLEIK
notes: Murine monoclonal antibody; Hybridoma ATCC PTA-4380; also called mAb EA2
Regarding B10, the binding result with cynomolgus EphA2 and in the assay with human EphA2 [5] was “binds” each time.
